This is an account of results in article PMC6113293, “Phosphorylation of ULK1 affects autophagosome fusion and links chaperone-mediated autophagy to macroautophagy” (Nature Communications, 2018).

Assay [1] addresses T1, GST-ULK1 279–525 (from bacteria) (UniProt O75385 279-525).
T1 construct: in the vector pGEX-4t-2; source: E. coli BL21 codon plus, purified
T1 sequence (looked up): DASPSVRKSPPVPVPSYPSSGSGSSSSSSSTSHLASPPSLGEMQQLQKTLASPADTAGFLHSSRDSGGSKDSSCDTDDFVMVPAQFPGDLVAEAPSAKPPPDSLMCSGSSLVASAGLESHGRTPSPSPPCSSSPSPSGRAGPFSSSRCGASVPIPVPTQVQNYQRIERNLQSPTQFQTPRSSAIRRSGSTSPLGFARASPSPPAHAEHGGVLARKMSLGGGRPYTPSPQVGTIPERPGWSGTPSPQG
The assay can be described thus: pull-down; GST-ULK1 279–525 and His-STX17 157–275 purified from bacteria, incubated in IP lysis buffer with glutathione beads for 4 h at 4 °C; western blot with His antibody. Conditions: both partners purified. For orientation: A western blot detects proteins with antibodies after separation by electrophoresis.

A further assay deals with T2, GFP-STX17, P56962.
T2 chain: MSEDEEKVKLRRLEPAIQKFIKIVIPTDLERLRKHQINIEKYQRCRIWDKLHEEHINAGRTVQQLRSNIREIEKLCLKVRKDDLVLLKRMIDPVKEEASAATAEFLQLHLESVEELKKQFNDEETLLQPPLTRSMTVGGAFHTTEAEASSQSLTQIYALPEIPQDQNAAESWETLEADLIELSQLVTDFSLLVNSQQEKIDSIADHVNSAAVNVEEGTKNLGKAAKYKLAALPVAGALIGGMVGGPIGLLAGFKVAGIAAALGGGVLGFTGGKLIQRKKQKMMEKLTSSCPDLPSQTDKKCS
The assay can be described thus: proximity ligation; GFP-STX17 co-transfected with Myc-ULK1 variants or Myc vector into HeLa; anti-Myc and anti-GFP antibodies; with or without serum starvation. Conditions: remark: other sources report otherwise.

B1: His-STX17 157–275 (domain or fragment, UniProt P56962 157-275, looked up)
chain: YALPEIPQDQNAAESWETLEADLIELSQLVTDFSLLVNSQQEKIDSIADHVNSAAVNVEEGTKNLGKAAKYKLAALPVAGALIGGMVGGPIGLLAGFKVAGIAAALGGGVLGFTGGKLI
notes: in the vector pET-26b(+); source: E. coli BL21 codon plus, purified; not shown: His6, C-terminal, kept
Take B1: the binding result in assay [1] is listed as “binds”.

B2: Myc-ULK1 WT, O75385 1-1050 (enzyme)
chain: MEPGRGGTETVGKFEFSRKDLIGHGAFAVVFKGRHREKHDLEVAVKCINKKNLAKSQTLLGKEIKILKELKHENIVALYDFQEMANSVYLVMEYCNGGDLADYLHAMRTLSEDTIRLFLQQIAGAMRLLHSKGIIHRDLKPQNILLSNPAGRRANPNSIRVKIADFGFARYLQSNMMAATLCGSPMYMAPEVIMSQHYDGKADLWSIGTIVYQCLTGKAPFQASSPQDLRLFYEKNKTLVPTIPRETSAPLRQLLLALLQRNHKDRMDFDEFFHHPFLDASPSVRKSPPVPVPSYPSSGSGSSSSSSSTSHLASPPSLGEMQQLQKTLASPADTAGFLHSSRDSGGSKDSSCDTDDFVMVPAQFPGDLVAEAPSAKPPPDSLMCSGSSLVASAGLESHGRTPSPSPPCSSSPSPSGRAGPFSSSRCGASVPIPVPTQVQNYQRIERNLQSPTQFQTPRSSAIRRSGSTSPLGFARASPSPPAHAEHGGVLARKMSLGGGRPYTPSPQVGTIPERPGWSGTPSPQGAEMRGGRSPRPGSSAPEHSPRTSGLGCRLHSAPNLSDLHVVRPKLPKPPTDPLGAVFSPPQASPPQPSHGLQSCRNLRGSPKLPDFLQRNPLPPILGSPTKAVPSFDFPKTPSSQNLLALLARQGVVMTPPRNRTLPDLSEVGPFHGQPLGPGLRPGEDPKGPFGRSFSTSRLTDLLLKAAFGTQAPDPGSTESLQEKPMEIAPSAGFGGSLHPGARAGGTSSPSPVVFTVGSPPSGSTPPQGPRTRMFSAGPTGSASSSARHLVPGPCSEAPAPELPAPGHGCSFADPITANLEGAVTFEAPDLPEETLMEQEHTEILRGLRFTLLFVQHVLEIAALKGSASEAAGGPEYQLQESVVADQISLLSREWGFAEQLVLYLKVAELLSSGLQSAIDQIRAGKLCLSSTVKQVVRRLNELYKASVVSCQGLSLRLQRFFLDKQRLLDRIHSITAERLIFSHAVQMVQSAALDEMFQHREGCVPRYHKALLLLEGLQHMLSDQADIENVTKCKLCIERRLSALLTGICA
In turn, B2 registered a fold increase of the PLA signal with serum starvation over no starvation with GFP-STX17, P56962 of 2.5 fold.
